Test [1] concerns the target T1, human DLL4, full-length, expressed on HEK293G cells (human, UniProt Q9NR61 27-685). The experiment in a line: cell-based or functional assay.
The target of test [2] is T2, full-length human DLL4 on HEK293G cells (human, UniProt Q9NR61 27-685).
T2 construct: whole, on cells; also called HEK293G cells expressing human DLL4
The experiment in a line: flow cytometry (FACS) on HEK293G cells overexpressing full-length DLL4. Here is the method: Stable HEK293G cell lines overexpressing full-length DLL4 were harvested from tissue culture flasks, washed four times and resuspended in phosphate buffered saline (PBS) containing 1% bovine serum albumin and 1 mM CaCl₂ (FACS buffer). 1.5×10⁵ cells were incubated with DVD binding proteins at various concentrations in FACS buffer for 60 minutes on ice. […] Following an incubation on ice (4° C., 60 minutes), cells were washed three times and resuspended in FACS buffer. Fluorescence was measured using a Becton Dickinson FACSCalibur-HTS (Becton Dickinson, San Jose, Calif.). Data was analyzed using Graphpad Prism software and EC₅₀ values were reported as the concentration of antibody to achieve 50% of maximal antibodies binding to DLL4 expressing cells.
For orientation: In flow cytometry, cells or beads pass a laser one at a time.

Test [3] deals with T2, full-length human DLL4 on HEK293G cells. The experiment in a line: cell-based or functional assay.
For test [4], the target named is T3, purified recombinant human DLL4 extracellular domain (ECD) (human, UniProt Q9NR61 27-529).
T3 construct: extracellular domain; also called human DLL4529; huDLL4
Put plainly: SPR (Biacore), DVD captured via anti-human Fc, DLL4 ECD injected, 25 C. Here is the method: (§1) For DLL4 binding kinetic measurements the assay buffer was HBS-EPB: 10 mM Hepes, pH7.5, 150 mM NaCl, 3 mM EDTA, 0.005% Tween 20, 0.1 mg/ml BSA (Sigma A7906). For VEGF binding kinetic measurements the assay buffer was HBS-EP+(3N01B): 10 mM Hepes, pH7.5, 300 mM NaCl, 3 mM EDTA, 0.05% Tween 20, 0.1 mg/ml BSA (Sigma A7906). For example, approximately 9000 RU of goat anti-human Fc specific polyclonal antibody (Thermo Fisher Scientific Inc., Rockford, Ill.) diluted in 10 mM sodium acetate (pH 4.5) is directly immobilized across a CM5 research grade biosensor chip using a standard amine coupling kit according to manufacturer's instructions and procedures at 25 ug/ml. Unreacted moieties on the biosensor surface are blocked with ethanolamine. For kinetic analysis, rate equations derived from the 1:1 Langmuir binding model are fitted simultaneously to multiple antigen injections (using global fit analysis) with the use of Scrubber 2 (BioLogic Software), Biacore Biaevaluation 4.0.1 software or Biacore T100 Evaluation software. Purified antibodies are diluted in running buffer for capture across goat anti-human Fc reaction surfaces. Antibodies to be captured as a ligand (1 ug/ml) are injected over reaction matrices at a flow rate of 10 ul/min. During the assay, all measurements are referenced against the capture surface alone (i.e. with no captured antibody). […] The equilibrium dissociation constant KD (M) of the reaction between antibodies and the target antigen is then calculated from the kinetic rate constants by the following formula: KD=Koff/Kₒₙ. Binding is recorded as a function of time and kinetic rate constants are calculated.

Test [5] deals with T1, human DLL4, full-length, expressed on …. Put plainly: cell-based or functional assay. This is another data set of the same source.
Test [6] concerns the target T3, purified recombinant human DLL4 …. Put plainly: SPR (Biacore), antibody captured via anti-human Fc, DLL4 ECD injected, 25 C. On the procedure: as §1
Background: In SPR one partner is held on a chip, and binding of the other changes the refractive index at the surface.

The target is the same in test [7]. The experiment in a line: Notch competition ELISA: inhibition of biotin DLL4 ECD binding to coated human Notch-1. On the procedure:
Plates were then washed 3× with wash buffer (PBS, 0.05% Tween-20) and blocked with 200 μl/well blocking buffer (D-PBS, 1% BSA, 1 mM CaCl₂, 0.05% Tween-20) for 1 hour at 25° C. […] Assay plates were washed after blocking, and incubated with DLL4/antibody mixtures (100 μl/well, 1 hour at 25° C. with shaking). Plates were washed again and 100 μl/well of streptavidin conjugated with HRP (Fitzgerald #65R-S104PHRPx, diluted 1:5,000 in blocking buffer) was added for 1 hour at 25° C. with shaking. After a final wash, plates were developed using 100 μl/well substrate (TMB Sigma #T8665), and the reaction was stopped using 100 μl/well 1N HCl, and the absorbance was read at 450 nm. Data was analyzed using Graphpad Prism software and IC₅₀ values were reported as the concentration of antibody required to achieve 50% reduction of DLL4 binding to Notch1.
(ELISA stands for enzyme-linked immunosorbent assay.)

Values joined by “and” are separate entries in the source; they are usually repeats but may differ in a detail not shown here. Equal values may be shown once.

B1: h1A11.1-SL-Av Fab (Fab)
chain 1: EVQLVESGGGLVQPGGSLRLSCAASGFTFSNFPMAWVRQAPGKGLEWVATISSSDGTTYYRDSVKGRFTISRDNAKNSLYLQMNSLRAEDTAVYYCARGYYNSPFAYWGQGTLVTVSSASTKGPEVQLVESGGGLVQPGGSLRLSCAASGYTFTNYGMNWVRQAPGKGLEWVGWINTYTGEPTYAADFKRRFTFSLDTSKSTAYLQMNSLRAEDTAVYYCAKYPHYYGSSHWYFDVWGQGTLVTVSS
chain 2: not shown
Turning to B1, in test [1], the “IC50 (nM), DLL4 neutralization cellular assay, 0 nM VEGF” value is more than 40 nM; the “IC50 (nM), DLL4 neutralization cellular assay, 150 nM BSG2 present” value was more than 40 nM; the “IC50 (nM), DLL4 neutralization cellular assay, 150 nM VEGF present” value came out at 4.56 nM.

B2: h1A11.1-SS-Av (bispecific antibody, human IgG1)
VH: EVQLVESGGGLVQPGGSLRLSCAASGFTFSNFPMAWVRQAPGKGLEWVATISSSDGTTYYRDSVKGRFTISRDNAKNSLYLQMNSLRAEDTAVYYCARGYYNSPFAYWGQGTLVTVSSASTKGPEVQLVESGGGLVQPGGSLRLSCAASGYTFTNYGMNWVRQAPGKGLEWVGWINTYTGEPTYAADFKRRFTFSLDTSKSTAYLQMNSLRAEDTAVYYCAKYPHYYGSSHWYFDVWGQGTLVTVSS
VL: DIQMTQSPSSLSASVGDRVTITCRASEDIYSNLAWYQQKPGKAPKLLIYDTNNLADGVPSRFSGSGSGTDFTLTISSLQPEDFATYYCQQYNNYPPTFGQGTKLEIKRTVAAPDIQMTQSPSSLSASVGDRVTITCSASQDISNYLNWYQQKPGKAPKVLIYFTSSLHSGVPSRFSGSGSGTDFTLTISSLQPEDFATYYCQQYSTVPWTFGQGTKVEIKR
notes: DVD-Ig; also called h1A11.1-SS-Av DVD
Turning to B2, in test [2], the EC50 (as a rule, the concentration that produces a half-maximal response) is 3.75 nM. Besides, the “Notch Activation IC50” value in test [3] was 7.47 nM. The Kd (commonly the free concentration of one partner at which half of the binding sites on the other are occupied at equilibrium, for simple one-to-one binding) in test [4] stood at 12 nM.

B3: h1A11.1 humanized anti-DLL4 mAb (antibody, V domains shown)
VH: EVQLVESGGGLVQPGGSLRLSCAASGFTFSNFPMAWVRQAPGKGLEWVATISSSDGTTYYRDSVKGRFTISRDNAKNSLYLQMNSLRAEDTAVYYCARGYYNSPFAYWGQGTLVTVSS
VL: DIQMTQSPSSLSASVGDRVTITCRASEDIYSNLAWYQQKPGKAPKLLIYDTNNLADGVPSRFSGSGSGTDFTLTISSLQPEDFATYYCQQYNNYPPTFGQGTKLEIKR
B3: in test [5], the “IC50 (nM), DLL4-Notch reporter assay, h1A11.1 + Av mixture, 0 nM VEGF” value was 8.64 nM and 9.17 nM; the “IC50 (nM), DLL4-Notch reporter assay, h1A11.1 + Av mixture, 6 nM BSG2 (negative control protein) present” value came out at 9.55 nM; the “IC50 (nM), DLL4-Notch reporter assay, h1A11.1 + Av mixture, 6 nM VEGF present” value worked out at 9.97 nM; the “IC50 (nM), DLL4-Notch reporter assay, h1A11.1 + Av mixture, 150 nM BSG2 (negative control protein) present” value came to 10.9 nM. Besides, the “IC50 (nM), DLL4-Notch reporter assay, h1A11.1 + Av mixture, 150 nM VEGF present” value in test [5] was 10.3 nM.

B4: humanized anti-DLL4 mAb (h1A11.1) (antibody, V domains shown)
VH: EVQLVESGGGLVQPGGSLRLSCAASGFTFSNFPMAWVRQAPGKGLEWVATISSSDGTTYYRDSVKGRFTISRDNAKNSLYLQMNSLRAEDTAVYYCARGYYNSPFAYWGQGTLVTVSS
VL: DIQMTQSPSSLSASVGDRVTITCRASEDIYSNLAWYQQKPGKAPKLLIYDTNNLADGVPSRFSGSGSGTDFTLTISSLQPEDFATYYCQQYNNYPPTFGQGTKLEIKR
notes: Parental humanized anti-DLL4 mAb
As for B4, in test [6], the Kd is 12 nM; the koff (as a rule, the rate constant with which the complex falls apart) is 0.00193 s⁻¹; the kon (usually the rate constant with which the complex forms) amounted to 160000 M⁻¹ s⁻¹.

B5: h1A11.1-LL-Av (bispecific antibody, human IgG1)
VH: EVQLVESGGGLVQPGGSLRLSCAASGFTFSNFPMAWVRQAPGKGLEWVATISSSDGTTYYRDSVKGRFTISRDNAKNSLYLQMNSLRAEDTAVYYCARGYYNSPFAYWGQGTLVTVSSASTKGPSVFPLAPEVQLVESGGGLVQPGGSLRLSCAASGYTFTNYGMNWVRQAPGKGLEWVGWINTYTGEPTYAADFKRRFTFSLDTSKSTAYLQMNSLRAEDTAVYYCAKYPHYYGSSHWYFDVWGQGTLVTVSS
VL: DIQMTQSPSSLSASVGDRVTITCRASEDIYSNLAWYQQKPGKAPKLLIYDTNNLADGVPSRFSGSGSGTDFTLTISSLQPEDFATYYCQQYNNYPPTFGQGTKLEIKRTVAAPSVFIFPPDIQMTQSPSSLSASVGDRVTITCSASQDISNYLNWYQQKPGKAPKVLIYFTSSLHSGVPSRFSGSGSGTDFTLTISSLQPEDFATYYCQQYSTVPWTFGQGTKVEIKR
notes: DVD-Ig; also called h1A11.1-LL-Av DVD
On to B5, for which the response in test [2] was half-maximal at 5.04 nM (EC50). In addition, the “Notch Activation IC50” value in test [3] amounted to 4.56 nM. In addition, in test [7], the IC50 (usually the concentration needed to halve the response being measured) was found to be 0.79 nM.

B6: h1A11.1-LS-Av (bispecific antibody, human IgG1)
VH: EVQLVESGGGLVQPGGSLRLSCAASGFTFSNFPMAWVRQAPGKGLEWVATISSSDGTTYYRDSVKGRFTISRDNAKNSLYLQMNSLRAEDTAVYYCARGYYNSPFAYWGQGTLVTVSSASTKGPSVFPLAPEVQLVESGGGLVQPGGSLRLSCAASGYTFTNYGMNWVRQAPGKGLEWVGWINTYTGEPTYAADFKRRFTFSLDTSKSTAYLQMNSLRAEDTAVYYCAKYPHYYGSSHWYFDVWGQGTLVTVSS
VL: DIQMTQSPSSLSASVGDRVTITCRASEDIYSNLAWYQQKPGKAPKLLIYDTNNLADGVPSRFSGSGSGTDFTLTISSLQPEDFATYYCQQYNNYPPTFGQGTKLEIKRTVAAPDIQMTQSPSSLSASVGDRVTITCSASQDISNYLNWYQQKPGKAPKVLIYFTSSLHSGVPSRFSGSGSGTDFTLTISSLQPEDFATYYCQQYSTVPWTFGQGTKVEIKR
notes: DVD-Ig; also called h1A11.1-LS-Av DVD
B6: the EC50 in test [2] stood at 5 nM. Besides, in test [3], the “Notch Activation IC50” value amounted to 4.59 nM. In addition, the Kd in test [4] amounted to 11 nM. Also, the IC50 in test [7] turned out to be 0.76 nM.

For the origin of these results see patent publication US20190031783A1 (AbbVie / Abbott, published 2019).
